The results in this text go back to FireProtDB (doi:10.1006/jmbi.1999.3099).

The conditions of this data set: Mus musculus, pH 7.5, Thermal, Potassium phosphate 50 mM, KCl 50 mM, reversible: yes, structure 1MBG.

Chain of Transcriptional activator Myb V103L, P06876 (P06876 whole entry V103L): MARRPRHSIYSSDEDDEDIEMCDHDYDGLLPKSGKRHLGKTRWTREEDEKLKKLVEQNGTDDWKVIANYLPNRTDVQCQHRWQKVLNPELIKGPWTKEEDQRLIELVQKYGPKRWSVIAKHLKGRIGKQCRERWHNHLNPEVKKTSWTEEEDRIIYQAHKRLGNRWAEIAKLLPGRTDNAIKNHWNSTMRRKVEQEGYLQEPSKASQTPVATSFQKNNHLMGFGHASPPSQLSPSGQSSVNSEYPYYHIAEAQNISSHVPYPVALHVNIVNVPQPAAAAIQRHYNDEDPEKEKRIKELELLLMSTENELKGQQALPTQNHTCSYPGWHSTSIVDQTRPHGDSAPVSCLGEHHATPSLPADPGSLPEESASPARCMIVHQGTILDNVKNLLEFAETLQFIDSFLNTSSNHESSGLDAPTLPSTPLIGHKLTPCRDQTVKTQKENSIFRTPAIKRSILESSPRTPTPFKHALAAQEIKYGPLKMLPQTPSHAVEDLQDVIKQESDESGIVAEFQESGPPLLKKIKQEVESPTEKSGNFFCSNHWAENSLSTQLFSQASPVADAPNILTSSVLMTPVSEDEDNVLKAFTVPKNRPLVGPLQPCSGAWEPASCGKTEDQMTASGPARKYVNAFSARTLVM
Chain of Transcriptional activator Myb V103I, P06876 (P06876 whole entry V103I): as the sequence (P06876 whole entry V103L) above, with L103I counted along it
Chain of Transcriptional activator Myb V103A, P06876 (P06876 whole entry V103A): as the sequence (P06876 whole entry V103L) above, with L103A counted along it

For the substance “Transcriptional activator Myb V103A, P06876”, under “CD”, the Tm – broadly, the temperature at the midpoint of the melting transition – is 2.8 °C and the “change of melting temperature, mutant - wild type (higher = more stable)” value (from here on “change of melting temperature, mutant”) was -36.8 °C.

For “Transcriptional activator Myb V103I, P06876”, where the note is “CD”, the Tm was 46.6 °C and the “change of melting temperature, mutant” value was found to be 7 °C. Where the note is “DSC”, the Tm turned out to be 47.5 °C and the “unfolding enthalpy (calorimetric)” value was determined as 32.1 kcal/mol.

In the case of “Transcriptional activator Myb V103L, P06876”, where the note is “CD”, the Tm worked out at 62 °C and the “change of melting temperature, mutant” value was determined as 22.4 °C. In addition, where the note is “DSC”, the Tm was found to be 62 °C and the “unfolding enthalpy (calorimetric)” value stood at 41.8 kcal/mol.
